Source: patent publication US20090188010A1

Assays:
Experiment in all cases: cell-based or functional assay
[1] = biological target: NaPI-insensitive chymotrypsin from H. punctigera (HpCh5), native enzyme from the larval gut (Helicoverpa punctigera)
[2] = biological target: Bovine chymotrypsin (bovine) (UniProt P00766)
[3] = biological target: chymotrypsins in unfractionated gut extracts from H. punctigera larvae

Chain of NaPI-insensitive chymotrypsin from H. punctigera (HpCh5), native enzyme from the larval gut (Helicoverpa punctigera) (chain, as listed by the source limits assumed): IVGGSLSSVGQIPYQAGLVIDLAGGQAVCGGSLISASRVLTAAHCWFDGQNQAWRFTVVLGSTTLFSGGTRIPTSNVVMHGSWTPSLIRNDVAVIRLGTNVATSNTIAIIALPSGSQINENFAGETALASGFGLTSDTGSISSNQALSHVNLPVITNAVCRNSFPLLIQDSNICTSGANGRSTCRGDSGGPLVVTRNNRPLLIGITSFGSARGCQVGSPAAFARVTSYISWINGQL
Chain of lima bean trypsin inhibitor (Sigma) (P01056 whole entry): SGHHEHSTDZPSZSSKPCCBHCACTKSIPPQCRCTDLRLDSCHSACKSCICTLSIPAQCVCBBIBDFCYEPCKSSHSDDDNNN
Chain of soybean Bowman Birk inhibitor (P01055 40-110 limits assumed): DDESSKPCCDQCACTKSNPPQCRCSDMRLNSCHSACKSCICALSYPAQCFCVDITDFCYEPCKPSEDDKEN
Chain of soybean trypsin inhibitor (P01070 25-205): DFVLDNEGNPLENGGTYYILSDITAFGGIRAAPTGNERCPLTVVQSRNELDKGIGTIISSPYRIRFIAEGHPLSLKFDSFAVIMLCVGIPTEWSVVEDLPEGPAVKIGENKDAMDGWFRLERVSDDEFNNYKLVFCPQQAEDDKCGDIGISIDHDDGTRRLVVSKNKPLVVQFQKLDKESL

Substance	% Inhibition of chymotrypsin activity at the maximum concentration tested (>20 µM) [1] [%]	IC50 of inhibition of chymotrypsin activity [1] [µM]	% Inhibition of chymotrypsin activity at the maximum concentration tested (5 µM) [2] [%]	IC50 of inhibition of chymotrypsin activity [2] [µM]	% Inhibition of chymotrypsin activity at the maximum concentration tested (10 µM) [1] [%]	degree of inhibition of gut chymotrypsin activity of control insects, 80 nM C1 (FIG. 2F) [3] [%]	% Inhibition of chymotrypsin activity at the maximum concentration tested (>20 µM) [2] [%]
lima bean trypsin inhibitor (Sigma) (from UniProt P01056 1-83)	89	3	100	0.2	–	–	–
soybean Bowman Birk inhibitor (from UniProt P01055 40-110)	–	0.24	100	0.06	100	–	–
C1 monomer, chymotrypsin inhibitor from the N. alata proteinase inhibitor precursor, HPLC purified	–	–	–	–	–	75	–
soybean trypsin inhibitor (from UniProt P01070 25-205)	82	33	–	13	–	–	94
